Patent US20150344570A1 (published 2015)

T1: FcγRIIb extracellular domain with C-terminal His tag (human, UniProt P31994 43-217)
T1 construct: extracellular domain; Soluble receptor used as analyte in Biacore; also called FcgRIIb; CD32B
T1 sequence (looked up): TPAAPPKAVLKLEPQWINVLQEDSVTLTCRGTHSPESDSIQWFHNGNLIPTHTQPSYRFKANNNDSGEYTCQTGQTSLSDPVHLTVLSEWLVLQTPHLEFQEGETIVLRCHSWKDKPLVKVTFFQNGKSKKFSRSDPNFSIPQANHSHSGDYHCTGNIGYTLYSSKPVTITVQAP

T2: FcγRIIa H (FcgRIIa type H, His at position 131), extracellular domain with C-terminal His tag (human, UniProt P12318 34-217)
T2 construct: extracellular domain; also called 2aH; FcgRIIa H; not shown: His tag at the C terminus
T2 sequence (looked up): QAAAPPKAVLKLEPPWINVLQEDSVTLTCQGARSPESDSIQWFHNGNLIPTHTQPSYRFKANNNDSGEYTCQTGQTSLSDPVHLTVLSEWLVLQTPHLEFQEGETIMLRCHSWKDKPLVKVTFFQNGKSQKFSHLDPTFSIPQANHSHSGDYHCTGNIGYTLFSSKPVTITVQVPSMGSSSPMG

T3: FcγRIIb, extracellular domain with C-terminal His tag (human, UniProt P31994 43-217)
T3 construct: extracellular domain; also called 2b; FcgRIIb; not shown: His tag at the C terminus
T3 sequence (looked up): T1 sequence (looked up)

B1: GpH7-A5/GpH7-B3 variant E269_01G/GpL16-k0 (antibody, human IgG1, kappa)
heavy 1: not shown
heavy 2: not shown
light: DIVMTQSPLSLPVTPGEPASISCQASESLVHSNRNTYLHWYLQKPGQSPQLLIYKVSNRFSGVPDRFSGSGSGTDFTLKISRVEAEDVGVYYCSQNTHVPPTFGQGTKVEIERTVAAPSVFIFPPSDEQLKSGTASVVCLLNNFYPREAKVQWKVDNALQSGNSQESVTEQDSKDSTYSLSSTLTLSKADYEKHKVYACEVTHQGLSSPVTKSFNRGEC
notes: Heterodimerized anti-glypican-3 IgG1; mutation in the GpH7-B3 chain only; also called He Ab E269G
B2: GpH7-A5/GpH7-B3 variant E269_02A/GpL16-k0 (antibody, human IgG1, kappa)
heavy 1: not shown
heavy 2: not shown
light: B1 light
notes: Heterodimerized anti-glypican-3 IgG1; mutation in the GpH7-B3 chain only; also called He Ab E269A
B3: GpH7-A5/GpH7-B3 variant H268_11K/GpL16-k0 (antibody, human IgG1, kappa)
heavy 1: not shown
heavy 2: not shown
light: B1 light
notes: Heterodimerized anti-glypican-3 IgG1; mutation in the GpH7-B3 chain only; also called He Ab H268K
B4: GpH7-A5/GpH7-B3 variant E269_11K/GpL16-k0 (antibody, human IgG1, kappa)
heavy 1: not shown
heavy 2: not shown
light: B1 light
notes: Heterodimerized anti-glypican-3 IgG1; mutation in the GpH7-B3 chain only; also called He Ab E269K
B5: GpH7-A5/GpH7-B3 variant H268_14T/GpL16-k0 (antibody, human IgG1, kappa)
heavy 1: not shown
heavy 2: not shown
light: B1 light
notes: Heterodimerized anti-glypican-3 IgG1; mutation in the GpH7-B3 chain only; also called He Ab H268T
B6: GpH7-A5/GpH7-B3 variant V266_16H/GpL16-k0 (antibody, human IgG1, kappa)
heavy 1: not shown
heavy 2: not shown
light: B1 light
notes: Heterodimerized anti-glypican-3 IgG1; mutation in the GpH7-B3 chain only; also called He Ab V266H
B7: GpH7-A5/GpH7-B3 variant Y300_10E/GpL16-k0 (antibody, human IgG1, kappa)
heavy 1: not shown
heavy 2: not shown
light: B1 light
notes: He Ab; alteration in one H chain only; also called He Ab
B8: GpH7-A5/GpH7-B3 variant V266_16H/GpL16-k0 (antibody, human IgG1, kappa)
heavy 1: not shown
heavy 2: not shown
light: B1 light
notes: as for B7
B9: GpH7-A5/GpH7-B3 variant E269_03V/GpL16-k0 (antibody, human IgG1, kappa)
heavy 1: not shown
heavy 2: not shown
light: B1 light
notes: Heterodimerized anti-glypican-3 IgG1; mutation in the GpH7-B3 chain only; also called He Ab E269V
B10: GpH7-A5/GpH7-B3 variant S267_18N/GpL16-k0 (antibody, human IgG1, kappa)
heavy 1: not shown
heavy 2: not shown
light: B1 light
notes: Heterodimerized anti-glypican-3 IgG1; mutation in the GpH7-B3 chain only; also called He Ab S267N
B11: GpH7-A5/GpH7-B3 variant S298_08L/GpL16-k0 (antibody, human IgG1, kappa)
heavy 1: not shown
heavy 2: not shown
light: B1 light
notes: as for B7
B12: GpH7-A5/GpH7-B3 variant H268_06M/GpL16-k0 (antibody, human IgG1, kappa)
heavy 1: not shown
heavy 2: not shown
light: B1 light
notes: Heterodimerized anti-glypican-3 IgG1; mutation in the GpH7-B3 chain only; also called He Ab H268M
B13: GpH7-A5/GpH7-B3 variant H268_08L/GpL16-k0 (antibody, human IgG1, kappa)
heavy 1: not shown
heavy 2: not shown
light: B1 light
notes: Heterodimerized anti-glypican-3 IgG1; mutation in the GpH7-B3 chain only; also called He Ab H268L
B14: GpH7-A5/GpH7-B3 variant S267_11K/GpL16-k0 (antibody, human IgG1, kappa)
heavy 1: not shown
heavy 2: not shown
light: B1 light
notes: Heterodimerized anti-glypican-3 IgG1; mutation in the GpH7-B3 chain only; also called He Ab S267K
B15: GpH7-A5/GpH7-B3 variant E269_18N/GpL16-k0 (antibody, human IgG1, kappa)
heavy 1: not shown
heavy 2: not shown
light: B1 light
notes: Heterodimerized anti-glypican-3 IgG1; mutation in the GpH7-B3 chain only; also called He Ab E269N
B16: GpH7-A5/GpH7-B3 variant E269_05P/GpL16-k0 (antibody, human IgG1, kappa)
heavy 1: not shown
heavy 2: not shown
light: B1 light
notes: Heterodimerized anti-glypican-3 IgG1; mutation in the GpH7-B3 chain only; also called He Ab E269P
B17: GpH7-A5/GpH7-B3 variant S267_05P/GpL16-k0 (antibody, human IgG1, kappa)
heavy 1: not shown
heavy 2: not shown
light: B1 light
notes: Heterodimerized anti-glypican-3 IgG1; mutation in the GpH7-B3 chain only; also called He Ab S267P
B18: GpH7-A5/GpH7-B3 variant E269_04F/GpL16-k0 (antibody, human IgG1, kappa)
heavy 1: not shown
heavy 2: not shown
light: B1 light
notes: Heterodimerized anti-glypican-3 IgG1; mutation in the GpH7-B3 chain only; also called He Ab E269F
B19: GpH7-A5/GpH7-B3 variant E269_16H/GpL16-k0 (antibody, human IgG1, kappa)
heavy 1: not shown
heavy 2: not shown
light: B1 light
notes: Heterodimerized anti-glypican-3 IgG1; mutation in the GpH7-B3 chain only; also called He Ab E269H
B20: GpH7-A5/GpH7-B3 variant E269_13S/GpL16-k0 (antibody, human IgG1, kappa)
heavy 1: not shown
heavy 2: not shown
light: B1 light
notes: Heterodimerized anti-glypican-3 IgG1; mutation in the GpH7-B3 chain only; also called He Ab E269S

What was measured:
[1] = biological target: T4, FcγRIa extracellular domain with C-terminal His tag (human, UniProt P12314 16-292); test: SPR Biacore, antibody captured on antigen-peptide chip, FcγR as analyte
T4 construct: extracellular domain; Soluble receptor used as analyte in Biacore; also called FcgRI; FcgRIa

[2] = biological target: T1, FcγRIIb extracellular domain with …; test: as above
[3] = biological target: T2, FcγRIIa H (FcgRIIa type H, His at …); test: SPR (Biacore), relative binding, GpH7-A5/GpH7-B3/GpL16-k0 = 100
[4] = biological target: T3, FcγRIIb, extracellular domain with …; test: as above
[5] = biological target: T2, FcγRIIa H (FcgRIIa type H, His at …); test: SPR; He/Con_2aH divided by He/Con_2b (FcγRIIa H binding over FcγRIIb binding)

T4 sequence (P12314 16-292): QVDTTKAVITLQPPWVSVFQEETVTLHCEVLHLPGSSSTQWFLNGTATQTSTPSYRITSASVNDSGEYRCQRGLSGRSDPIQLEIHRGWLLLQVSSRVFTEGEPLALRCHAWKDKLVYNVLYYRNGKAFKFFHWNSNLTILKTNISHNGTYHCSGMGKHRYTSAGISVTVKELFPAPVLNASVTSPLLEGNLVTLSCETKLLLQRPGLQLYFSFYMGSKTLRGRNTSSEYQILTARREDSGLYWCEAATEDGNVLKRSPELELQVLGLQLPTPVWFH

Binder	He/Con_1a [1]	He/Con_2b [2]	He/Con_2aH [3]	He/Con_2b [4]	He_2aH/2b (IIaH/IIb) [5]
B1	104 relative, GpH7-A5/GpH7-B3/GpL16-k0 = 100	51.5 relative, GpH7-A5/GpH7-B3/GpL16-k0 = 100			
B2	104 relative, GpH7-A5/GpH7-B3/GpL16-k0 = 100	49.9 relative, GpH7-A5/GpH7-B3/GpL16-k0 = 100			
B3	106 relative, GpH7-A5/GpH7-B3/GpL16-k0 = 100	83 relative, GpH7-A5/GpH7-B3/GpL16-k0 = 100			
B4	95.2 relative, GpH7-A5/GpH7-B3/GpL16-k0 = 100	17.8 relative, GpH7-A5/GpH7-B3/GpL16-k0 = 100			
B5	112 relative, GpH7-A5/GpH7-B3/GpL16-k0 = 100	86 relative, GpH7-A5/GpH7-B3/GpL16-k0 = 100			
B6	89.1 relative, GpH7-A5/GpH7-B3/GpL16-k0 = 100	57.2 relative, GpH7-A5/GpH7-B3/GpL16-k0 = 100			
B7			97.2 % of control	134 % of control	0.73 ratio
B8			21.2 % of control	57.2 % of control	0.37 ratio
B9	103 relative, GpH7-A5/GpH7-B3/GpL16-k0 = 100	45.1 relative, GpH7-A5/GpH7-B3/GpL16-k0 = 100			
B10	102 relative, GpH7-A5/GpH7-B3/GpL16-k0 = 100	47.7 relative, GpH7-A5/GpH7-B3/GpL16-k0 = 100			
B11			85 % of control	108 % of control	0.78 ratio
B12	105 relative, GpH7-A5/GpH7-B3/GpL16-k0 = 100	65.7 relative, GpH7-A5/GpH7-B3/GpL16-k0 = 100			
B13	107 relative, GpH7-A5/GpH7-B3/GpL16-k0 = 100	67.8 relative, GpH7-A5/GpH7-B3/GpL16-k0 = 100			
B14	93.3 relative, GpH7-A5/GpH7-B3/GpL16-k0 = 100	12.2 relative, GpH7-A5/GpH7-B3/GpL16-k0 = 100			
B15	102 relative, GpH7-A5/GpH7-B3/GpL16-k0 = 100	44.8 relative, GpH7-A5/GpH7-B3/GpL16-k0 = 100			
B16	102 relative, GpH7-A5/GpH7-B3/GpL16-k0 = 100	52.6 relative, GpH7-A5/GpH7-B3/GpL16-k0 = 100			
B17	91.8 relative, GpH7-A5/GpH7-B3/GpL16-k0 = 100	31.5 relative, GpH7-A5/GpH7-B3/GpL16-k0 = 100			
B18	103 relative, GpH7-A5/GpH7-B3/GpL16-k0 = 100	45 relative, GpH7-A5/GpH7-B3/GpL16-k0 = 100			
B19	106 relative, GpH7-A5/GpH7-B3/GpL16-k0 = 100	38.5 relative, GpH7-A5/GpH7-B3/GpL16-k0 = 100			
B20	103 relative, GpH7-A5/GpH7-B3/GpL16-k0 = 100	47.8 relative, GpH7-A5/GpH7-B3/GpL16-k0 = 100			
